Here are results for one molecule from US10208288B2, “Differentiation of human embryonic stem cells into pancreatic endocrine cells” (Janssen Biotech, Inc., priority 2012, dated 2019).

The subject of this experiment is cells of the human embryonic stem cell line H1 differentiated to stage 5. The experiment is described as follows: Real-time PCR of pancreatic endoderm/endocrine genes after factors spiked into stage 5 media. It counts as cell-based. The procedure:
Cells of the human embryonic stem cell line H1 (hESC H1, passage 40) were seeded as single cells at 1×10^5 cells/cm^2 on MATRIGEL™ (1:30 dilution; BD Biosciences, NJ)-coated dishes in mTeSR®1 media (StemCell Technologies, Vancouver, Canada) supplemented with 10 μM of Y27632 (Rock inhibitor, Catalog No. Y0503, SigmaAldrich, St. Louis, Mo.). Forty-eight hours post seeding, cultures were washed in incomplete PBS (phosphate buffered saline without Mg or Ca). Cultures were differentiated into pancreatic endoderm/endocrine lineages as follows: • a) Stage 1 (Definitive Endoderm (DE)—3 days): Cells were cultured for one day in stage 1 media: MCDB-131 medium (Catalog No. 10372-019, Invitrogen, Carlsbad, Calif.) supplemented with 0.1% fatty acid-free BSA (Catalog No. 68700, Proliant, Ankeny, Iowa), 0.0012 g/ml sodium bicarbonate (Catalog No. S3187, SigmaAldrich, St. Louis, Mo.), 1× GlutaMax™ (Invitrogen Catalog No. 35050-079), 4.5 mM D-Glucose (SigmaAldrich Catalog No. G8769), 100 ng/ml GDF8 (R&D Systems, Minneapolis, Minn.) and 1 μM MCX compound (a GSK3B inhibitor, 14-Prop-2-en-1-yl-3,5,7,14,17,23,27-heptaazatetracyclo [19.3.1.1˜2,6˜0.1˜8,12˜]heptacosa-1(25),2(27),3,5,8(26),9,11,21,23-nonaen-16-one, US Patent Application Publication No. 2010-0015711; incorporated herein by reference in its entirety). Cells were then cultured for additional day in MCDB-131 medium supplemented with 0.1% fatty acid-free BSA, 0.0012 g/ml sodium bicarbonate, 1× GlutaMax™, 4.5 mM D-Glucose, 100 ng/ml GDF8, and 0.1 μM MCX compound. Cells were then cultured for an additional day in MCDB-131 medium supplemented with 0.1% fatty acid-free BSA, 0.0012 g/ml sodium bicarbonate, 1× GlutaMax™, 4.5 mM D-Glucose, and 100 ng/ml GDF8, then • b) Stage 2 (Primitive gut tube—2 days): Cells were treated for two days with MCDB-131 medium supplemented with 0.1% fatty acid-free BSA; 0.0012 g/ml sodium bicarbonate; 1× GlutaMax™; 4.5 mM D-Glucose; 0.25 mM ascorbic acid (Sigma, St. Louis, Mo.) and 25 ng/ml FGF7 (R & D Systems, Minneapolis, Minn.), then • c) Stage 3 (Foregut—2 days): Cells were treated with MCDB-131 medium supplemented with a 1:200 dilution of ITS-X (Invitrogen); 4.5 mM Glucose; 1× GlutaMax™; 0.0017 g/ml sodium bicarbonate; 2% fatty acid-free BSA; 0.25 μM SANT-1 (Sigma, St. Louis, Mo.); 10 ng/ml of Activin-A (R & D Systems); 1 μM retinoic acid (RA; Sigma); 25 ng/ml FGF7; 0.25 mM ascorbic acid; 200 nM TPB (a PKC activator; Catalog No. 565740; EMD Chemicals, Gibstown, N.J.); 10 μM forskolin (FSK, Sigma), and 100 nM LDN (a BMP receptor inhibitor; Catalog No. 04-0019; Stemgent; San Diego, Calif.) for day 1. On day 2, cells were treated with MCDB-131 medium supplemented with a 1:200 dilution of ITS-X; 4.5 mM Glucose; 1× GlutaMax™; 0.0017 g/ml sodium bicarbonate; 2% fatty acid-free BSA; 0.25 μM SANT-1; 10 ng/ml of Activin A; 1 μM RA; 25 ng/ml FGF7; 0.25 mM ascorbic acid, 200 nM TPB, 10 μM forskolin and 10 nM LDN, then • d) Stage 4 (Pancreatic foregut precursor—2 days); Cells were treated with MCDB-131 medium supplemented with a 1:200 dilution of ITS-X; 4.5 mM Glucose; 1× GlutaMax™; 0.0015 g/ml sodium bicarbonate; 2% fatty acid-free BSA; 0.25 μM SANT-1; 50 nM RA; 50 nM LDN-193189; 10 μM forskolin; 0.25 mM ascorbic acid; and 100 nM TPB for two days, then • e) Stage 5 (Pancreatic endoderm/endocrine—3 days): Stage 4 cells were treated with MCDB-131 medium supplemented with a 1:200 dilution of ITS-X; 20 mM Glucose; 1× GlutaMax™; 0.0015 g/ml sodium bicarbonate; 2% fatty acid-free BSA; 0.25 μM SANT-1; 50 nM RA; 10 μM forskolin; 0.25 mM ascorbic acid for three days, with the addition of 100 nM ALk5 inhibitor SD-208 (disclosed in Molecular Pharmacology 2007, 72:152-161) for days 2-3 only.
At day 1 of stage 5, the factors listed in Table I, below, were spiked into the media and upon completion of S5 (day 3 of stage 5) mRNA was collected for PCR analysis of relevant pancreatic endoderm/endocrine genes. As a control, cultures were treated only with the S5 media listed above. […]

B1: Ephrin-A4: Ephrin ligand protein, R & D Systems catalogue number 369-EA (protein, UniProt P52798 26-170, looked up)
Ephrin-A4: LRHVVYWNSSNPRLLRGDAVVELGLNDYLDIVCPHYEGPGPPEGPETFALYMVDWPGYESCQAEGPRAYKRWVCSLPFGHVQFSEKIQRFTPFSLGFEFLPGETYYYISVPTPESSGQCLRLQVSVCCKERKSESAHPVGSPGES
As for B1, the PDX1 expression entry (Ephrin-A4 100 ng/ml at S5, mRNA at day 3 of S5, vs control, FIG. 1E) was “minimal impact”. Besides, the NGN3 expression result (Ephrin-A4 100 ng/ml at S5, mRNA at day 3 of S5, vs control, FIG. 1G) was “minimal impact”. Moreover, under “factor spiked at day 1 of stage 5, mRNA at day 3 of S5, vs control cultures, Table I: Ephrin-A4 100 ng/ml, Activin A and Activin C 20 ng/ml, FIG. 1A”, the “mRNA expression of insulin” value is on record as “enhanced”. The “mRNA expression of NKX6.1” value (factor spiked at day 1 of stage 5, mRNA at day 3 of S5, vs control cultures, Table I: Ephrin-A4 100 ng/ml, Semaphorin 3a 50 ng/ml, Epigen 20 ng/ml, FIG. 1F) is “enhanced”.
